Results from article PMC3164469 (Molecular Biology of the Cell, 2011).

T1: SMT3–Hairless NTCT fusion protein (residues 232–358) (Drosophila melanogaster, UniProt Q02308 232-358)
T1 sequence: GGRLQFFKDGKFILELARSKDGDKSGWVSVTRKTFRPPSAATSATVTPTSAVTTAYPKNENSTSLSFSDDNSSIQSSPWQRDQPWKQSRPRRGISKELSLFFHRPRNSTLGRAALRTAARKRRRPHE

B1: core Su(H) (amino acids 98–523) (domain or fragment)
chain: not shown

Key:
[1] = target: T1, SMT3–Hairless NTCT fusion protein …; assay: ITC
[2] = target: B1; assay: native gel or EMSA

Row | stoichiometry N [1] | binding result [2] | Binder
1 | 0.9 | – | B1
2 | – | binds | GGRLQFFKDGKFILELARSKDGDKSGWVSVTRKTFRPP (domain or fragment) [Hairless NT (amino acids 232–269)]
